{"source": "patent US20160348147", "key": {"[1]": {"biological_target": "T1, ELP-substrate fusion M(GVGVP)60GDGQVPMSMRGGDDEGQQDDEEGY", "T1 chain": "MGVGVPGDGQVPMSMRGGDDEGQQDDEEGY"}, "[2]": {"biological_target": "T2, MSKGPGWGVG(VPGVG)60GDGQVPMSMRGGDDEGQQDDEE(VPGAGVPGGG)30YG fusion polypeptide", "T2 chain": "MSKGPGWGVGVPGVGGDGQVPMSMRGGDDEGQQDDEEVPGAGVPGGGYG"}, "[3]": {"biological_target": "T3, A4 construct M(YPSDGRGQ)40YGDGQVPMSMRGGDEGQQDDEEGY", "T3 chain": "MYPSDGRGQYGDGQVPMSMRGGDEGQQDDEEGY"}}}
{"protein": "Human MMP-1 catalytic domain (recombinant, produced in E. coli, 19.9 kDa) (protein) FVLTEGNPRWEQTHLTYRIENYTPDLPRADVDHAIEKAFQLWSNVTPLTFTKVSEGQADIMISFVRGDHRDNSPFDGPGGNLAHAFQPGPGIGGDAHFDEDERWTNNFREYNLHRVAAHELGHSLGLSHSTDIGALMYPSYTFSGDVQLAQDDIDGIQAIYGRSQNPVQP", "values": [{"measurement": "catalytic constant (kcat) from Lineweaver-Burke plot, SDS-PAGE densitometry, 20 ng/mL enzyme, 40 C", "setting": "[1]", "value": "8.0 ± 1.9", "unit": "s⁻¹"}, {"measurement": "mass spectrometry of the polypeptide before and after incubation with 100 ng/mL MMP-1 for 2 h at 25 C", "setting": "[1]", "value": "most of the 1.8 kDa MMP-sensitive peptide is cleaved off the 25.4 kDa ELP"}, {"measurement": "optical density at 350 nm and DLS particle size after 12 h with 100 ng/mL MMP-1 at 40 C", "setting": "[1]", "value": "the optical density of the solution shows a dramatic increase as the solution is heated above the CMT to 45 °C"}, {"measurement": "optical density versus temperature before and after incubation with MMP-1", "setting": "[2]", "value": "Incubation of these micelles with MMP-1 enzyme is shown to result in drastic changes in optical densities at the micelle-forming transition temperature"}, {"measurement": "transition temperature of 25 µM A4 before and after incubation with 25 ng/mL MMP-1 at 37 C", "setting": "[3]", "value": "a change in transition temperature of A4 construct at 25 µM prior to (solid line) and after (dashed line) incubation with 25 ng/mL of MMP-1 enzyme"}]}
